# Literature values as cited in article PMC10320286.
# Target: IL-18BP (Homo sapiens) (UniProt O95998)
# Sequence (O95998 31-194): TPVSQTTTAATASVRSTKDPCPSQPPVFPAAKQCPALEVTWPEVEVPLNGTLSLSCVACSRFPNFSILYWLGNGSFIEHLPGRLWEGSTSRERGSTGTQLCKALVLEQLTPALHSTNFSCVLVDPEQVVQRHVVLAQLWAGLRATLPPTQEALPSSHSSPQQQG
# IL-18, sequence (Q14116 37-193): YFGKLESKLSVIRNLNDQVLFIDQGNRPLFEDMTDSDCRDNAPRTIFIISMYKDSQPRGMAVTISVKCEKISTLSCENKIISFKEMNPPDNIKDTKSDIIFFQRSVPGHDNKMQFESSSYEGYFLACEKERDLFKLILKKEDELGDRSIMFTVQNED
substance,measurement,value
IL-18 (from UniProt Q14116),Kd,0.038 nM
